This is an account of results in patent US10808017B2, “Ubiquitin variants and uses therof as 53BP1 inhibitors” (The Governing Council of the University of Toronto, priority 2016, dated 2020).

One assay concerns the target T1, RPL17 (Homo sapiens, UniProt P18621).
T1 construct: endogenous in cells; host or cells: HEK293 Flp-In/T-REx
The experiment in a line: Flag IP-MS of i53/i53-DM baits: prey RPL17. Type of assay: binding. The following applies: 293T Flp-In/T-Rex extracts, LC-MS/MS, one column per replicate IP. How it is done:
(§1) Following immunoprecipitation of Flag-tagged i53 and i-53-DM from HEK293 Flp-In/T-REx cells, peptides were identified using LC-MS/MS. Proteins were digested in solution with trypsin (Sigma, T7575-1KT) and dried to completeness. For LC-MS/MS analysis, peptides were reconstituted in 5% formic acid and loaded onto a 12-15 cm fused silica column with pulled tip packed in-house with 3.5 μm Zorbax C18 (Agilent Technologies, Calif., USA).
(§2) i53 and i53-DM precipitates were analyzed using an LTQ (Thermo Scientific) coupled to an Agilent 1100 Series HPLC (Agilent Technologies). Peptides were eluted from the column using a 90 min period cycle with a linear gradient from 0% to 40% ACN in 0.1% formic acid. Tandem MS spectra were acquired in a data-dependent mode for the top 5 (LTQ) most abundant ions using collision-induced dissociation. Acquired spectra were searched against the human Refseq_V53 database using Mascot (Matrix Science).
(§3) 293T Flp-In/T-Rex cell lines were generated that expressed Flag-tagged i53 or i53-DM under the control of a tetracycline-inducible promoter as previously described. Nine IP-MS experiments were analyzed (3 biological replicate IPs each for control i53- and i53-DM expressing cell lines). The interacting proteins were identified by MASCOT to identify high-confidence interactors for i53. […]

The target of another assay is T2, VPS13C (Homo sapiens, UniProt Q709C8).
T2 construct: endogenous in cells; host or cells: HEK293 Flp-In/T-REx cells
The experiment in a line: Flag IP-MS of i53/i53-DM baits: prey VPS13C. Type of assay: binding. The following applies: 293T Flp-In/T-Rex extracts, LC-MS/MS, one column per replicate IP. The method, then: as §1, §2, §3

In a further assay the target is T3, WDR96 (Homo sapiens, UniProt Q8NDM7).
T3 construct: Following immunoprecipitation of Flag-tagged i53 and i-53-DM from HEK293 Flp-In/T-REx cells, peptides were identified using LC-MS/MS; endogenous in cells; host or cells: HEK293 Flp-In/T-REx cells
The assay can be described thus: Flag IP-MS of i53/i53-DM baits: prey WDR96. In kind it is binding. Conditions: 293T Flp-In/T-Rex extracts, LC-MS/MS, one column per replicate IP. How it is done:
as §1, §2, §3

For assay [1], the system named is BRCA1-deficient RPE1-hTERT cells. The assay can be described thus: Olaparib sensitivity assay. Type of assay: cell-based. Conditions: viral delivery of HA-tagged i53; compared to genetic deletion of 53BP1; Trypan blue viable count. The text has this: FIG. 9 Expression of i53 suppresses PARP inhibitor sensitivity of BRCA1-deficience cells. FIG. 9A, An isogenic set of cell lines derived from RPE 1-hTERT cells deleted for the gene coding for p53 (TP53Δ) containing either no further mutations (WT) or null mutations in BRCA1 (BRCA1Δ) or 53BP1 (53BP1Δ) alone or in combination, as indicated. These cell lines were transduced either with an empty virus (EV) or with lentiviruses that express HA-tagged i53 or its DM mutant. The virus also expressed GFP from an IRES. After sorting for GFP cells the viability of cells following olaparib treatment for […] was monitored by trypan blue exclusion. Data is presented as the mean +/− s.d. (N=3). FIG. 9B , Whole-cell extracts from the isogenic sets of RPE1-hTERT TP53Δ cells were separated by SDS page and probed by immunoblotting with the indicated antibodies. FIG. 9C , Expression of the HA-tagged Ubvs in the indicated RPE1-hTERT TP53Δ cell lines was determined by anti-HA immunoprecipitation (IP) followed by immunoblotting.
RPE1 hTERT cells were obtained from ATTC and maintained in DMEM +10% FCS. […]
Cells were seeded at a density of 20,000 cells/well in 6-well plates in the presence of olaparib at day 0. […] At day 6, cells were collected by trypsinization and viable cell count was determined by Trypan blue exclusion using an automated cell counter (Vi-CELL, Beckman Coulter).

The target of another assay is T4, TP53BP1 (Homo sapiens, UniProt Q12888).
T4 construct: endogenous in cells; host or cells: HEK293 Flp-In/T-REx
The experiment in a line: Flag IP-MS of i53/i53-DM baits: prey TP53BP1. In kind it is binding. How it is done:
as §1, §2, §3

“And” between values parts separate entries of the source, which are not always exact repeats. Identical values can stand only once.

T4 sequence (Q12888 whole entry): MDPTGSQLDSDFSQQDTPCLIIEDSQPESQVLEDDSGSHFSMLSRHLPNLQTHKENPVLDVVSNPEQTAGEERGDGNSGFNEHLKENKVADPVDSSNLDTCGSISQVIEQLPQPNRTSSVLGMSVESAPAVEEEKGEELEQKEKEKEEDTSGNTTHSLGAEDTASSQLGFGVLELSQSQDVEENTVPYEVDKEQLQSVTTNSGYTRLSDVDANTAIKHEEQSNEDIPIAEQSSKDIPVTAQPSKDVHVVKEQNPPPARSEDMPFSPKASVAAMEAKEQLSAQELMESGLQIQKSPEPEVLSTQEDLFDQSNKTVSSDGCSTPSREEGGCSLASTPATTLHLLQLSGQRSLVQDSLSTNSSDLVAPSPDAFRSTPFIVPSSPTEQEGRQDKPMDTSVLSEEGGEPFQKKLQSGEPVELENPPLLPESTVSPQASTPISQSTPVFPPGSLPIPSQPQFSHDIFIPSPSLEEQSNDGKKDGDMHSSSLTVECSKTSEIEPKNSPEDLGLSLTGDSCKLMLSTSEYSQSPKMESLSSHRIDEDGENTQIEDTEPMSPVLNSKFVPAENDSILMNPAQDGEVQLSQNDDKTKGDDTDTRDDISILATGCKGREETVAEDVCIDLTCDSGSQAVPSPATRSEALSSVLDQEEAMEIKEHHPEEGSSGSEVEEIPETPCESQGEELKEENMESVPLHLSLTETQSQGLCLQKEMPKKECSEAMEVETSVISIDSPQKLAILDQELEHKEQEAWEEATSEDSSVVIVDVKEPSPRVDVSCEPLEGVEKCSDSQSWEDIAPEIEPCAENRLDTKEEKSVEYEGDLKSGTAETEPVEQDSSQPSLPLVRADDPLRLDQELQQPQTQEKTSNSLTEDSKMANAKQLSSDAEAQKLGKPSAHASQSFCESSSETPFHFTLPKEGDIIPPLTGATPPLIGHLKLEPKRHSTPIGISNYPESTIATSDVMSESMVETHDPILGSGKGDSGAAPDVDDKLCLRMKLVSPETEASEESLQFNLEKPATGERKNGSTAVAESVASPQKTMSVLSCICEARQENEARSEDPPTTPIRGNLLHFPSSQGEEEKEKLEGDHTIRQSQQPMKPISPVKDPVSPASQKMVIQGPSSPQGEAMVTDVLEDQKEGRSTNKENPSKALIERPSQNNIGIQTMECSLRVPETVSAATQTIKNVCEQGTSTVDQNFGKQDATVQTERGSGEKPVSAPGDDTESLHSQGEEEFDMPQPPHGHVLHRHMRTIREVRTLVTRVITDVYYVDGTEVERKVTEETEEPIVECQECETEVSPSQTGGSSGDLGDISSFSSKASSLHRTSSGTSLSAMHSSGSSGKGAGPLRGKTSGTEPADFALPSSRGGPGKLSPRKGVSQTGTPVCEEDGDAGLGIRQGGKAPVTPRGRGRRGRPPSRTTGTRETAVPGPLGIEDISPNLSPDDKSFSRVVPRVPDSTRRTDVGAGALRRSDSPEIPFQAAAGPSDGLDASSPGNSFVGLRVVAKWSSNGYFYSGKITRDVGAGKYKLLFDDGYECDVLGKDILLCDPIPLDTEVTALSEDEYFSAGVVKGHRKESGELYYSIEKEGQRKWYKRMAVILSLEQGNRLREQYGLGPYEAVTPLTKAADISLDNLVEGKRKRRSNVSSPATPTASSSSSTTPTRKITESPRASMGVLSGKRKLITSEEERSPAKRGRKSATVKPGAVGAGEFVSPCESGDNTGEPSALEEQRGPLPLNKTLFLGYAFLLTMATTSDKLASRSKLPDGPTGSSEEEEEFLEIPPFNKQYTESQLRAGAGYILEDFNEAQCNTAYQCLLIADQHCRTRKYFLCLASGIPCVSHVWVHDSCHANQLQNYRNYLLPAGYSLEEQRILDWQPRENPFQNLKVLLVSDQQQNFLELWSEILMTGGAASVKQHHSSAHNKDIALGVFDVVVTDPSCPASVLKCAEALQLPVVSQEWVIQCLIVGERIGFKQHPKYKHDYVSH
T3 sequence (Q8NDM7 whole entry): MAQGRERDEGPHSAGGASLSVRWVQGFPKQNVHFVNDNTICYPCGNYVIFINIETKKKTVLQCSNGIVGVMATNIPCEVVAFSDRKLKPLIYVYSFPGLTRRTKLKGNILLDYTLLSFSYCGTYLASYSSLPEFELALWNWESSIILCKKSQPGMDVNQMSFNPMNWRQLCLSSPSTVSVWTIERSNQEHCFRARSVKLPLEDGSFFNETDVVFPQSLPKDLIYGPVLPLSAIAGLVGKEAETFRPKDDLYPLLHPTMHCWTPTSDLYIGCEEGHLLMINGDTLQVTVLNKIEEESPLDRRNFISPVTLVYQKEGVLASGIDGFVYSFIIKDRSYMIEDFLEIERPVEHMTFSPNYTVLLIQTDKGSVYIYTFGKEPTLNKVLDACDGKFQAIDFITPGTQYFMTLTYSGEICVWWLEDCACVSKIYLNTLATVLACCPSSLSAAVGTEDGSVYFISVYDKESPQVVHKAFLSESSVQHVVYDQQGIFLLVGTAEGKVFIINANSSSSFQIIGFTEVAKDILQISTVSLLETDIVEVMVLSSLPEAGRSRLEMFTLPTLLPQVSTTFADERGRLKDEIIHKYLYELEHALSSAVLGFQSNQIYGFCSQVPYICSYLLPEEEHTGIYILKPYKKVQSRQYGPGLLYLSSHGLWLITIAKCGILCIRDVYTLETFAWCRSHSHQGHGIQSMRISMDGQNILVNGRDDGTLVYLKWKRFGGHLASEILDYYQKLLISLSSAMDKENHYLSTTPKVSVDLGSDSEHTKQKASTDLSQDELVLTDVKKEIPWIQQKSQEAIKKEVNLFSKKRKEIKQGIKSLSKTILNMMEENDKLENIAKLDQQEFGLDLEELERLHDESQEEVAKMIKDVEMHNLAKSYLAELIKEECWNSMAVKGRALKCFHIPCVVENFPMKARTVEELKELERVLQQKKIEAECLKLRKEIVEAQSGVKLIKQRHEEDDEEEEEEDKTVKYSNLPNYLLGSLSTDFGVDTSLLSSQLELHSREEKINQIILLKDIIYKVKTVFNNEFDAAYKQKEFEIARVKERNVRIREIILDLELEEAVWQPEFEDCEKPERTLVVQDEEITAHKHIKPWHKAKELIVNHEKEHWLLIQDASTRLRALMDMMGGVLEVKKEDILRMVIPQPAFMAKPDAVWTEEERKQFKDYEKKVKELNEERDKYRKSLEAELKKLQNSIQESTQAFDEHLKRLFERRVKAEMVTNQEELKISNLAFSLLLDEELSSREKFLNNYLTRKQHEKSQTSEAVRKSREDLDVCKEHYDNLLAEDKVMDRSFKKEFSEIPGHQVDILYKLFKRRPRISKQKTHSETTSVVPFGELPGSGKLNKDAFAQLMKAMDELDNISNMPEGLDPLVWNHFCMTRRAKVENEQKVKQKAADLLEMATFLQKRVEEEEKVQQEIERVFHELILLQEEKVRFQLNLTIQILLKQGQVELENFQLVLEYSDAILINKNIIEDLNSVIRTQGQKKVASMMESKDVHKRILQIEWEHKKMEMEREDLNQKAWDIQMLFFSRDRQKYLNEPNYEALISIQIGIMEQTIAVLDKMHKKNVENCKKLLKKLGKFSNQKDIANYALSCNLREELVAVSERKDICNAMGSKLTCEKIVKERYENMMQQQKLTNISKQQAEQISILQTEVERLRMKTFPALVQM

For the substance “i53-DM: 53BP1-binding deficient mutant of i53 (P69L, L70V)”, in the assay with RPL17, the “Total peptides, RPL17” value was found to be 5. Further, the “Total peptides, VPS13C” value with VPS13C came out at 5. For the same substance, in the assay with WDR96, the “Total peptides, WDR96” value was determined as 4.

As for “i53: UbvG08 with C-terminal di-glycine removed and I44A mutation; genetically encoded inhibitor of 53BP1”, in assay [1], the “Alleviation of PARP inhibitor (olaparib) sensitivity” value is recorded as “only partially alleviated”. Further, the “Total peptides, TP53BP1” value with TP53BP1 (Flag IP, 293T Flp-In/T-Rex extracts, LC-MS/MS, one column per replicate IP, listed as Flag-i53) was 66 and 38 and 21. The “Selectivity of binding to cellular proteins (IP-MS conclusion)” value with TP53BP1 (three biological replicate IPs, interactors in two or more experiments) is on record as “highly selective binder of 53BP1”.
